Tested on: human multipotent progenitor cells (MLPCs) from umbilical cord
Settings: 3D environment; presence or absence in medium
Description: MLPCs were seeded on DETA-coated glass coverslips (18 mm) at a density of 4×10^3 cells/cm^2 in growth medium. After 3 days, at about 60% confluency, cells were incubated for 24 hours in pre-induction medium, consisting of DMEM, 15% FBS. FGF-2, EGF (20 ng/ml each, R & D Systems, Minneapolis, Minn.) and PDGF-AA (10 ng/ml, Chemicon International, Temecula, Calif.). To initiate differentiation, the pre-induction medium was removed, the cells were washed 2× with Hanks' balanced salts solution (Gibco BRL) and transferred to serum-free differentiation medium.
Construction of 3D Environment MLPCs were plated on DETA-coated glass coverslips (18 mm) in growth medium. At about 60% confluence, growth medium was replaced with pre-induction medium. […]
Phase-contrast images were taken with a commercial Nikon Coolpix 990 camera using the Zeiss Axiovert S100 microscope. Pictures were analyzed using Scion Image Software (Scion Corp., Frederick, Md.).
The morphological and immunocytochemical quantification was performed on undifferentiated stem cells or cells during various differentiation stages. […] All the marker-positive cells were counted, as well as the total number of cells in these views. At least three coverslips in each group were quantified and data were expressed as average±standard deviation (SD). Statistical differences between different experimental groups were analyzed by Student's t-test.

B1: EGF: growth factor in pre-induction and differentiation medium (protein, UniProt P01133 23-1207, looked up)
Pro-epidermal growth factor: PQHWSCPEGTLAGNGNSTCVGPAPFLIFSHGNSIFRIDTEGTNYEQLVVDAGVSVIMDFHYNEKRIYWVDLERQLLQRVFLNGSRQERVCNIEKNVSGMAINWINEEVIWSNQQEGIITVTDMKGNNSHILLSALKYPANVAVDPVERFIFWSSEVAGSLYRADLDGVGVKALLETSEKITAVSLDVLDKRLFWIQYNREGSNSLICSCDYDGGSVHISKHPTQHNLFAMSLFGDRIFYSTWKMKTIWIANKHTGKDMVRINLHSSFVPLGELKVVHPLAQPKAEDDTWEPEQKLCKLRKGNCSSTVCGQDLQSHLCMCAEGYALSRDRKYCEDVNECAFWNHGCTLGCKNTPGSYYCTCPVGFVLLPDGKRCHQLVSCPRNVSECSHDCVLTSEGPLCFCPEGSVLERDGKTCSGCSSPDNGGCSQLCVPLSPVSWECDCFPGYDLQLDEKSCAASGPQPFLLFANSQDIRHMHFDGTDYGTLLSQQMGMVYALDHDPVENKIYFAHTALKWIERANMDGSQRERLIEEGVDVPEGLAVDWIGRRFYWTDRGKSLIGRSDLNGKRSKIITKENISQPRGIAVHPMAKRLFWTDTGINPRIESSSLQGLGRLVIASSDLIWPSGITIDFLTDKLYWCDAKQSVIEMANLDGSKRRRLTQNDVGHPFAVAVFEDYVWFSDWAMPSVMRVNKRTGKDRVRLQGSMLKPSSLVVVHPLAKPGADPCLYQNGGCEHICKKRLGTAWCSCREGFMKASDGKTCLALDGHQLLAGGEVDLKNQVTPLDILSKTRVSEDNITESQHMLVAEIMVSDQDDCAPVGCSMYARCISEGEDATCQCLKGFAGDGKLCSDIDECEMGVPVCPPASSKCINTEGGYVCRCSEGYQGDGIHCLDIDECQLGEHSCGENASCTNTEGGYTCMCAGRLSEPGLICPDSTPPPHLREDDHHYSVRNSDSECPLSHDGYCLHDGVCMYIEALDKYACNCVVGYIGERCQYRDLKWWELRHAGHGQQQKVIVVAVCVVVLVMLLLLSLWGAHYYRTQKLLSKNPKNPYEESSRDVRSRRPADTEDGMSSCPQPWFVVIKEHQDLKNGGQPVAGEDGQAADGSMQPTSWRQEPQLCGMGTEQGCWIPVSSDKGSCPQVMERSFHMPSYGTQTLEGGVEKPHSLLSANPLWQQRALDPPHQMELTQ
modifications: Pro-epidermal growth factor
need of the growth factor for process formation: not essential
